Target: mtPaf1 (subunit of the four-subunit mtPaf1 complex) (Myceliophthora thermophila)
Experiment: co-purification, SDS/PAGE

| stoichiometry N | Substance |
| --- | --- |
| 1 | mtLeo1 (subunit of the four-subunit mtPaf1 complex) (natural protein) |
| 1 | mtCdc73 (subunit of the four-subunit mtPaf1 complex) (natural protein) |
